Experimental data taken from patent US20150344570A1 (published 2015).

How the values were obtained:
[1] = biological target: T1, FcγRIIb (human, UniProt P31994 43-217); experiment: SPR (Biacore), relative binding
T1 construct: extracellular domain; also called FcgRIIb; 2b
T1 sequence (looked up): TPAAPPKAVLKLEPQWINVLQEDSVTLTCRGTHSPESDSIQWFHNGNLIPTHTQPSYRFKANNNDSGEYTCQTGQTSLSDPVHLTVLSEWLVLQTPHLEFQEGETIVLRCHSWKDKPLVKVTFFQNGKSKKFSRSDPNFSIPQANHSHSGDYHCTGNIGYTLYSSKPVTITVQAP

[2] = biological target: T2, FcγRIIIa (human, UniProt P08637 17-208); experiment: SPR (Biacore), relative binding
T2 construct: extracellular domain; also called FcgRIIIa; 3a

[3] = biological target: T3, FcγRIIa R (FcγRIIa allotype with Arg at position 131), extracellular domain with C-terminal His tag (human, UniProt P12318 34-217); experiment: SPR (Biacore), antibody captured, FcγR analyte; vs GpH7-A5/GpH7-B3/GpL16-k0 = 100
T3 construct: extracellular domain; made in FreeStyle293 cells; analyte in the Biacore assay; also called FcγRIIa type R; 2aR
T3 sequence (looked up): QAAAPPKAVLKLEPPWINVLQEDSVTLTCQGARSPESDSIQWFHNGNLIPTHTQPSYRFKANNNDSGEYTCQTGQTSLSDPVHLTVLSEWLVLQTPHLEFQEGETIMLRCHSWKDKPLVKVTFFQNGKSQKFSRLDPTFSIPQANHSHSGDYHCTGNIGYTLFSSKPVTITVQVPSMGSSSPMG
Procedure: (§1) The heterodimerized antibodies He Abs in which one of the H chains was introduced with an alteration were assayed for their binding activities to each activating FcγR and inhibitory FcγR according to the method described in Example 4. […] The activating FcγRs in FIGS. 26, 27, 28, and 29 are FcγRIa, FcγRIIa (R), FcγRIIa (H), and FcγRIIIa, respectively.
(§2) Analysis of interaction between objective antibody and the FcγR was carried out using Biacore T100 (GE Healthcare). HBS-EP+ (GE Healthcare) was used as the running buffer, and the measurement temperature was set to 25° C. Chips produced by immobilizing the antigen peptide by the amine coupling method to a Series S Sencor Chip CM5 (GE Healthcare), or alternatively, chips produced by allowing preliminarily biotinylated antigen peptides to interact with and immobilize onto a Series S Sensor Chip SA (certified) (GE Healthcare) were used. Antibodies of interest were captured onto an antigen peptide-immobilized chip, and allowed to interact to each FcγR diluted with running buffer. To regenerate and repeatedly use the chip, the antibodies captured on the chip were washed off by reacting 10 mM glycine-HCl, pH 1.5.

[4] = biological target: T4, FcγRIIb, extracellular domain with C-terminal His tag (human, UniProt P31994 43-217); experiment: as above
T4 construct: extracellular domain; made in FreeStyle293 cells; analyte in the Biacore assay; also called 2b; FcgRIIb
T4 sequence (looked up): T1 sequence (looked up)
Procedure: as §1, §2

[5] = biological target: T5, FcγRIIb, extracellular domain with C-terminal His tag (human, UniProt P31994 43-217); experiment: SPR (Biacore), relative binding, GpH7-A5/GpH7-B3/GpL16-k0 = 100
T5 construct: extracellular domain; also called 2b; FcgRIIb; not shown: His tag at the C terminus
T5 sequence (looked up): T1 sequence (looked up)

T2 sequence (P08637 17-208): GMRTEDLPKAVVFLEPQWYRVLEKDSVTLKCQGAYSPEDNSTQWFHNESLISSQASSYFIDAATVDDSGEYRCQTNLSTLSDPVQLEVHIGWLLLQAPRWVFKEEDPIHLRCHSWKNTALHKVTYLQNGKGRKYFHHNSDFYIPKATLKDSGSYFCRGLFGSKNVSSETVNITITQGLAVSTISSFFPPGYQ

B1: GpH7-A5/GpH7-B3 variant I332_04F/GpL16-k0 (antibody, human IgG1, kappa)
heavy 1: not shown
heavy 2: not shown
light: DIVMTQSPLSLPVTPGEPASISCQASESLVHSNRNTYLHWYLQKPGQSPQLLIYKVSNRFSGVPDRFSGSGSGTDFTLKISRVEAEDVGVYYCSQNTHVPPTFGQGTKVEIERTVAAPSVFIFPPSDEQLKSGTASVVCLLNNFYPREAKVQWKVDNALQSGNSQESVTEQDSKDSTYSLSSTLTLSKADYEKHKVYACEVTHQGLSSPVTKSFNRGEC
notes: mutation in the GpH7-B3 chain only; also called He Ab
In the case of B1, the He/Con_2b [1] is reported as 104 % of GpH7-A5/GpH7-B3/GpL16-k0 and the He/Con_3a [2] is reported as 97.6 % of GpH7-A5/GpH7-B3/GpL16-k0.

B2: GpH7-A5/GpH7-B3 variant Y296_13S/GpL16-k0 (antibody, human IgG1, kappa)
heavy 1: not shown
heavy 2: not shown
light: B1 light
notes: heterodimerized IgG1, mutation in one H chain only; also called He Ab
B2 was tested, and the He/Con_2aR [3] was 102 relative (HeCon Ab = 100) and the He/Con_2b [4] was 86.3 relative (HeCon Ab = 100).

B3: GpH7-A5/GpH7-B3 variant A327_07I/GpL16-k0 (antibody, human IgG1, kappa)
heavy 1: not shown
heavy 2: not shown
light: B1 light
notes: as for B1
For B3, the He/Con_2b [1] was 127 % of GpH7-A5/GpH7-B3/GpL16-k0 and the He/Con_3a [2] was 42.4 % of GpH7-A5/GpH7-B3/GpL16-k0.

B4: GpH7-A5/GpH7-B3 variant N325_07I/GpL16-k0 (antibody, human IgG1, kappa)
heavy 1: not shown
heavy 2: not shown
light: B1 light
notes: as for B1
With B4 the He/Con_2b [1] was 171 % of GpH7-A5/GpH7-B3/GpL16-k0 and the He/Con_3a [2] was 28.7 % of GpH7-A5/GpH7-B3/GpL16-k0.

B5: GpH7-A5/GpH7-B3 variant N325_20W/GpL16-k0 (antibody, human IgG1, kappa)
heavy 1: not shown
heavy 2: not shown
light: B1 light
notes: as for B1
With B5 the He/Con_2b [1] was 169 % of GpH7-A5/GpH7-B3/GpL16-k0 and the He/Con_3a [2] was 32.8 % of GpH7-A5/GpH7-B3/GpL16-k0.

B6: GpH7-A5/GpH7-B3 variant N325_09D/GpL16-k0 (antibody, human IgG1, kappa)
heavy 1: not shown
heavy 2: not shown
light: B1 light
notes: as for B1
For B6, the He/Con_2b [1] was 124 % of GpH7-A5/GpH7-B3/GpL16-k0 and the He/Con_3a [2] was 48 % of GpH7-A5/GpH7-B3/GpL16-k0.

B7: GpH7-A5/GpH7-B3 variant N325_08L/GpL16-k0 (antibody, human IgG1, kappa)
heavy 1: not shown
heavy 2: not shown
light: B1 light
notes: as for B1
In the case of B7, the He/Con_2b [1] is reported as 197 % of GpH7-A5/GpH7-B3/GpL16-k0 and the He/Con_3a [2] is reported as 33.3 % of GpH7-A5/GpH7-B3/GpL16-k0.

B8: GpH7-A5/GpH7-B3 variant Y296_19Q/GpL16-k0 (antibody, human IgG1, kappa)
heavy 1: not shown
heavy 2: not shown
light: B1 light
notes: as for B2
For B8, the He/Con_2aR [3] was 102 relative (HeCon Ab = 100) and the He/Con_2b [4] was 89.3 relative (HeCon Ab = 100).

B9: GpH7-A5/GpH7-B3 variant L328_04F/GpL16-k0 (antibody, human IgG1, kappa)
heavy 1: not shown
heavy 2: not shown
light: B1 light
notes: as for B1
With B9 the He/Con_2b [1] was 219 % of GpH7-A5/GpH7-B3/GpL16-k0 and the He/Con_3a [2] was 79.3 % of GpH7-A5/GpH7-B3/GpL16-k0.

B10: GpH7-A5/GpH7-B3 variant L328_09D/GpL16-k0 (antibody, human IgG1, kappa)
heavy 1: not shown
heavy 2: not shown
light: B1 light
notes: as for B1
With B10 the He/Con_2b [1] was 199 % of GpH7-A5/GpH7-B3/GpL16-k0 and the He/Con_3a [2] was 47.8 % of GpH7-A5/GpH7-B3/GpL16-k0.

B11: GpH7-A5/GpH7-B3 variant N325_06M/GpL16-k0 (antibody, human IgG1, kappa)
heavy 1: not shown
heavy 2: not shown
light: B1 light
notes: as for B1
In the case of B11, the He/Con_2b [1] is reported as 217 % of GpH7-A5/GpH7-B3/GpL16-k0 and the He/Con_3a [2] is reported as 31.4 % of GpH7-A5/GpH7-B3/GpL16-k0.

B12: GpH7-A5/GpH7-B3 variant L328_19Q/GpL16-k0 (antibody, human IgG1, kappa)
heavy 1: not shown
heavy 2: not shown
light: B1 light
notes: as for B1
In the case of B12, the He/Con_2b [1] is reported as 105 % of GpH7-A5/GpH7-B3/GpL16-k0 and the He/Con_3a [2] is reported as 81.1 % of GpH7-A5/GpH7-B3/GpL16-k0.

B13: GpH7-A5/GpH7-B3 variant K334_12R/GpL16-k0 (antibody, human IgG1, kappa)
heavy 1: not shown
heavy 2: not shown
light: B1 light
notes: as for B1
B13 was tested, and the He/Con_2b [1] was 111 % of GpH7-A5/GpH7-B3/GpL16-k0 and the He/Con_3a [2] was 90.8 % of GpH7-A5/GpH7-B3/GpL16-k0.

B14: GpH7-A5/GpH7-B3 variant Y300_04F/GpL16-k0 (antibody, human IgG1, kappa)
heavy 1: not shown
heavy 2: not shown
light: B1 light
notes: as for B2
With B14 the He/Con_2aR [3] was 108 relative (HeCon Ab = 100) and the He/Con_2b [4] was 94.8 relative (HeCon Ab = 100).

B15: GpH7-A5/GpH7-B3 variant A327_10E/GpL16-k0 (antibody, human IgG1, kappa)
heavy 1: not shown
heavy 2: not shown
light: B1 light
notes: as for B1
B15 was tested, and the He/Con_2b [1] was 140 % of GpH7-A5/GpH7-B3/GpL16-k0 and the He/Con_3a [2] was 68.6 % of GpH7-A5/GpH7-B3/GpL16-k0.

B16: GpH7-A5/GpH7-B3 variant S267_12R/GpL16-k0 (antibody, human IgG1, kappa)
heavy 1: not shown
heavy 2: not shown
light: B1 light
notes: He Ab; alteration in one H chain only; also called He Ab
For B16, the He/Con_2b [5] was 11.3 % of control.

B17: GpH7-A5/GpH7-B3 variant A327_09D/GpL16-k0 (antibody, human IgG1, kappa)
heavy 1: not shown
heavy 2: not shown
light: B1 light
notes: as for B1
For B17, the He/Con_2b [1] was 172 % of GpH7-A5/GpH7-B3/GpL16-k0 and the He/Con_3a [2] was 83.7 % of GpH7-A5/GpH7-B3/GpL16-k0.

B18: GpH7-A5/GpH7-B3 variant P331_06M/GpL16-k0 (antibody, human IgG1, kappa)
heavy 1: not shown
heavy 2: not shown
light: B1 light
notes: as for B1
For B18, the He/Con_2b [1] was 102 % of GpH7-A5/GpH7-B3/GpL16-k0 and the He/Con_3a [2] was 74.8 % of GpH7-A5/GpH7-B3/GpL16-k0.

B19: GpH7-A5/GpH7-B3 variant A330_01G/GpL16-k0 (antibody, human IgG1, kappa)
heavy 1: not shown
heavy 2: not shown
light: B1 light
notes: as for B1
For B19, the He/Con_2b [1] was 104 % of GpH7-A5/GpH7-B3/GpL16-k0 and the He/Con_3a [2] was 89.1 % of GpH7-A5/GpH7-B3/GpL16-k0.

B20: GpH7-A5/GpH7-B3 variant Y296_18N/GpL16-k0 (antibody, human IgG1, kappa)
heavy 1: not shown
heavy 2: not shown
light: B1 light
notes: as for B2
With B20 the He/Con_2aR [3] was 104 relative (HeCon Ab = 100) and the He/Con_2b [4] was 91.5 relative (HeCon Ab = 100).

B21: GpH7-A5/GpH7-B3 variant L328_07I/GpL16-k0 (antibody, human IgG1, kappa)
heavy 1: not shown
heavy 2: not shown
light: B1 light
notes: as for B1
In the case of B21, the He/Con_2b [1] is reported as 160 % of GpH7-A5/GpH7-B3/GpL16-k0 and the He/Con_3a [2] is reported as 84 % of GpH7-A5/GpH7-B3/GpL16-k0.
